Series [1] is described as follows: HR2D peptide release from the outer chitosan NP-layer in PBS and in 10% FBS. Type of series: physicochemical. Conditions: within 10 minutes. As to the method: FIGS. 3A-C show DNA-encapsulation and HR2D-release.
The NPs were characterized for the plasmid encapsulation and integrity following synthesis, HR2D peptide release from the outer chitosan NP-layer in PBS and in 10% FBS and their cell (FIG. 3). First, chitosan-DNA nanoparticles were prepared by a complex coacervation method. In order to determine the optimal formulation, nanoparticles of different Chitosan/pDNA ratios were prepared and characterized. The binding of pDNA to chitosan for the formulations prepared herein was analyzed by gel electrophoresis.
Chitosan/pDNA NPs were coated with a liposomal layer after co-extrusion of chitosan-pDNA NPs with pre-formed liposomes. This layer ensures the stability and integrity of the plasmid DNA and the endosomal escape and also allows for functionalization of the nanoparticle surface. The liposomal layer was then coated with another layer of chitosan complexed with fusion inhibitor HR2-D peptide.

Another series deals with RSV rA2-L19F. The series is described as follows: Inhibition of RSV rA2-L19F fusion by HR2D peptide in A549 cells. Type of series: cell-based. Conditions: A549 cells pre-treated with 5 or 20 μM 30 min before infection, MOI 0.1, 24 hours. As for the experimental part: Fluorescence microscopy images of A549 cells pre-treated with 5 or 20 μM HR2D peptide 30 min before RFP-RSV-Ln19-A2 infection MOI 0.1 for 24 hours. RFP intensity quantified with ImageJ.
RFP intensity was quantified with ImageJ.

Experimental findings from patent US11911481B2, “Compositions and methods for treating RSV-infections” (UNITED STATES GOVERNMENT AS REPRESENTED BY THE DEPARTMENT …, priority 2018, dated 2024) are described below.

For “DACISQVNECINQSLAFICKSDELLCNT [HR2D peptide]”, the “peptide released from the outer layer” value in series [1] worked out at 90%. The RFP expression result with RSV rA2-L19F was “significantly lower”.
